From patent US20140099332A1 (IMMUNOGEN, published 2014)
Several values for one entry are separate records, joined by “and”; a condition that tells them apart may be missing. Identical values can stand only once. Blank lines part the entries; values can stand above or below the binder they belong to.

Legend:
[1] = target: T1, human folate receptor 1 (FOLR1) on cells (human, UniProt P15328 25-234); experiment: laser scanning cytometry on cell lines, optimal dilution 1:200
T1 construct: also called FRA; huFolR1
T1 sequence (P15328 25-234): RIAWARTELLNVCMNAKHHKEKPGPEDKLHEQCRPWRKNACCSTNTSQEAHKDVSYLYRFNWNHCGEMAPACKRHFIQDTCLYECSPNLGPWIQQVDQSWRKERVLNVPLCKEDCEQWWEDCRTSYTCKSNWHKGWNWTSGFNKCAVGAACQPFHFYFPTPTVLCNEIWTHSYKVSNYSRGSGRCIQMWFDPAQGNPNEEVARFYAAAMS
Procedure: (§1) Three cell lines with varying levels of FOLR1 expression were selected as representative of high expression (KB), low expression (OVCAR3), and no expression (A549). Unlabeled FR1-9 and FR1-13, as well as a commercial anti-FOLR1 antibody (“commercial FRA”), were titrated, and optimal titrations were determined for each of the antibodies using laser scanning cytometry (LSC) detection on the selected cell lines. […] Optimal dilutions were identified for each antibody as follows: 1:5 for commercial FRA, 1:100 for muFR1-9, and 1:200 for muFR1-13.

[2] = target: T1, human folate receptor 1 (FOLR1) on cells; experiment: indirect flow cytometry, T47D cells, Alexa-488 goat anti-mouse
Procedure: (§2) To assure that materials were continuously performing as expected, all antibodies were screened for binding by both ELISA and flow cytometry methods known in the art. Flow cytometry was performed using FOLR1 expressing human T47D cells cultured using in-vitro cell culture techniques known in the art. The antibodies were bound to these cells and detected indirectly using a goat anti-murine Alexa-fluor 488 detection antibody on a FACScalibur machine (FIG. 6A-B).

[3] = target: T2, human FolR1-Fc fusion protein (human; mouse, UniProt P15328 25-233); experiment: sandwich ELISA (Folate ELISA): 1 ug/ml FR1-64, 1 ug/ml FR1-13-Biotin, FOLR1-Fc titrated
T2 construct: The construct encodes the 233 amino acids from the N-terminal signal peptide to just upstream of the GPI linkage site; also called huFOLR1-Fc; human folate receptor 1 Fc fusion molecule; not shown: residues encoded by the Pst1 to BamHI oligonucleotide linker
T2 sequence (P15328 25-233): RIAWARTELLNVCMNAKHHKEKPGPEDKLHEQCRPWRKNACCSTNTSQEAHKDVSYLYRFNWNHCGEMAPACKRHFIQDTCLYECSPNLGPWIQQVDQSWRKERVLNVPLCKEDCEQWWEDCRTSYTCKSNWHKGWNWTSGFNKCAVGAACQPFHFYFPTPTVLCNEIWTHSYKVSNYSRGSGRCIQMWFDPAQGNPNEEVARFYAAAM

[4] = target: T3, FOLR2 (UniProt P14207 17-230, limits assumed); experiment: ELISA on FOLR2-His antigen, antibody titrated ([Ab] (M)); positive control FR2 Ab reaches about 0.42 [left graph (FOLR2-His]
T3 construct: also called folate receptor 2
T3 sequence (P14207 17-230 limits assumed): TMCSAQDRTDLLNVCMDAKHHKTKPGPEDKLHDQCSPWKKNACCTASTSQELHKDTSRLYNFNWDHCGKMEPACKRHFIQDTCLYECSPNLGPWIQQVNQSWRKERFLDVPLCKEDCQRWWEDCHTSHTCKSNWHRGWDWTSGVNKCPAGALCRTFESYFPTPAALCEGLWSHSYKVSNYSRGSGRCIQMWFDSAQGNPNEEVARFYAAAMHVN

[5] = target: T4, FOLR1 (antigen of the screening ELISAs, form not stated) (human, UniProt P15328 25-234); experiment: competition ELISA: serial concentrations of competing murine clone against a constant concentration of (biotinylated) muFR1-13
T4 construct: It may be the FOLR1-Fc fusion; also called the same antigen; the target
T4 sequence (P15328 25-234 limits assumed): as the sequence (P15328 25-234) above

[6] = target: T2, human FolR1-Fc fusion protein; experiment: sandwich ELISA: Mu FOLR1-13 coated on the plate, FOLR-Fc fusion titrated, detected with Hu Mov19 and polyclonal goat anti-human HRP
[7] = target: T5, FOLR3 (human, UniProt P41439 23-245, limits assumed); experiment: ELISA with FOLR3-His antigen titrated ([Ag ug/ml]); positive control reaches about 2.6 after 3 min development [right graph (FOLR3-His]
T5 construct: also called folate receptor 3
T5 sequence (P41439 23-245 limits assumed): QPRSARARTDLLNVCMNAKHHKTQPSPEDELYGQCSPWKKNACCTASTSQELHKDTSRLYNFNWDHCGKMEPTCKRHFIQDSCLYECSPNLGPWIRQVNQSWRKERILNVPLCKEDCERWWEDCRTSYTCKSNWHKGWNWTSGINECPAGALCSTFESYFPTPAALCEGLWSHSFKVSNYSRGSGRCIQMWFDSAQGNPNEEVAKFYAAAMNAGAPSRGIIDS

[8] = target: T1, human folate receptor 1 (FOLR1) on cells; experiment: apparent binding affinity 'by both methods': flow cytometry on T47D cells and ELISA; lower end of the range given for FR1-13; flow cytometry on T47D cells and ELISA
Procedure: as §2

[9] = target: T1, human folate receptor 1 (FOLR1) on cells; experiment: apparent binding affinity 'by both methods': flow cytometry on T47D cells and ELISA; upper end of the range given for FR1-13; flow cytometry on T47D cells and ELISA
Procedure: as §2

[10] = target: T2, human FolR1-Fc fusion protein; experiment: sandwich ELISA (FOLR1 ELISA): clone coated on the plate as capture antibody, FOLR-Fc fusion titrated, format as in FIG. 1
Procedure: The 40 clones were alternatively coated onto the assay plate in place of muFR1-9 in the diagram, and the resulting binding curves were analyzed shown in FIG. 5. Antibodies that contained the lowest half-maximal response (EC50) were considered to have the highest binding specificity to FOLR1, and thus were chosen as the top candidates for the assay.

[11] = target: T1, human folate receptor 1 (FOLR1) on cells; experiment: laser scanning cytometry on cell lines, optimal dilution 1:100
Procedure: as §1

[12] = target: T1, human folate receptor 1 (FOLR1) on cells; experiment: apparent binding affinity 'by both methods': flow cytometry on T47D cells and ELISA; unit M taken from the preceding value; lower end of the range given for FR1-9; flow cytometry on T47D cells and ELISA
Procedure: as §2

[13] = target: T1, human folate receptor 1 (FOLR1) on cells; experiment: apparent binding affinity 'by both methods': flow cytometry on T47D cells and ELISA; unit M taken from the preceding value; upper end of the range given for FR1-9; flow cytometry on T47D cells and ELISA
Procedure: as §2

signal to background ration [1]: 4.19
EC50 (read off the curve) [2]: ~1 nM and ~2 nM
EC50 (read off the curve) [3]: ~2 nM and ~3 nM
IC50 (read off the curve) [5]: ~0.07 µg/mL
EC50 (read off the curve) [6]: ~5 pM
Kd [8]: ≥ 1 nM
Kd [9]: ≤ 3 nM
B1: muFR1-13 (antibody, mouse IgG2b, kappa, V domains shown)
VH: QVQLKESGPDLVAPSQSLSITCTVSGFSLSRYSVHWIRQPPGKGLEWLGMIWSGGNTDYNSVFKSRLNITKDNSKSQVFLKMNSLQTDDTAIYYCATFDGKVSWFAYWGQGTLVTVSA
VL: SIVMTQTPKFLLVSTGDRFTITCKASQSVSNDVLWYQQKPGQSPKLLIYYAYNRYSGVPDRFTGSGYGTDFTFTITTVQSEDLAVYFCQQDHSSPFTFGSGTKLEIKR
notes: Murine monoclonal purified from hybridoma supernatant; also called muFR1-13b (biotinylated); Biotinylated FR1-13
binding result [4]: no binding (tested: about 10^-8 M antibody)
binding result [7]: no binding (tested: about 2.5 ug/ml antigen)

EC50 (read off the curve) [10]: ~10 pM
B2: muFR1-62 (antibody, mouse IgG1, kappa, V domains shown)
VH: QVQLQQSGAELARPGASVKMSCKASGYTFTTYTMHWVKQRPGQGLEWIAYINPTSGYNNYNQKFKEKATLTADKSSSTAYMQLTSLTSEDSAVYYCASGGAYGRRPVDYWGQGTSVTVSS
VL: DIVMTQSQKFMSISVGDRVSVTCKASQNVGTNVAWYQQKPGQSPKTLIYSASSRYSGVPDRFTGSGSGTDFTLTISNVQSEDLADYFCHQYNSYPYTFGGGTKLEIKR
notes: Murine monoclonal; The full-length light chain differs from the VL by shifted residues
binding result [4]: no binding (tested: about 10^-8 M antibody)
binding result [7]: no binding (tested: about 2.5 ug/ml antigen)

signal to background ration [11]: 4.07
EC50 (read off the curve) [10]: ~4 pM
Kd [12]: ≥ 2 nM
Kd [13]: ≤ 4 nM
B3: muFR1-9 (antibody, mouse IgG1, kappa, V domains shown)
VH: QVQLVESGGGLVQPGGSRKLSCAASGFTFSSFGMHWVRQAPEKGLEWVAYISSGSSTFYYADTVKGRFTISRDNPKNTLFLQMTSLRSEDTAMYYCAKELTGTFAYWGQGTLVTVSA
VL: DIVLTQSPATLSVTPGDSVSLSCRASQSINNNLHWYQQKSHESPRLLIKYASQSISGIPSRFSGSGSGTDFTLSINSVETEDFGMYFCQQSNSWPQVTFGAGTKLELKR
notes: Murine monoclonal purified from hybridoma supernatant; Capture antibody of the sandwich ELISA; also called murine FR1-9
binding result [4]: no binding (tested: about 10^-8 M antibody)
binding result [7]: no binding (tested: about 2.5 ug/ml antigen)

EC50 (read off the curve) [10]: ~10 pM
B4: muFR1-53 (antibody, mouse IgG1, kappa, V domains shown)
VH: QVQLQQSGPELVRPGASVKMSCKASGYKFTDYDISWVLQRTGQGLEWIGEIYPGSGRTYYNERFKGKATLTADKSSNTVYMQLSSLTSEDSAVYFCASSYYYGTNSPFAYWGQGTTLTVSS
VL: DIQMTQTTSSLSASLGDRVTISCRASQDISNYLHWYQRKPDGTVKLLVYYTSRLQSGVPSRFSGSGSGTDYSLTISNLEQEDIATYFCQQGNSLPPTFGSGTKLEIKR
notes: The full-length chains differ from the variable domains by shifted residues
binding result [4]: no binding (tested: about 10^-8 M antibody)
binding result [7]: no binding (tested: about 2.5 ug/ml antigen)
